Consider 2 molecules from US20220064334A1 (Janssen / Centocor, published 2022).

Assay [1] deals with T1, KLK2 CAR KL2B413-LH expressed on SupT1 cells.
T1 construct: also called SupT1-KL2B413 LH; KL2B413-LH SupT1
Put plainly: flow cytometry on KL2B413-LH CAR SupT1 cells, directly PE-labelled antibody, PE median fluorescence. As for the experimental part:
Multiple lots of PE-A002B39 were compared to assess differences in binding to KL2B413LH-SupT1 cells across batches. KL2B413-LH SupT1 cells (200,000 cells/well) were stained with LIVE/DEAD Fixable Near-IR viability dye and incubated with increasing concentrations of PE-A002B39 for 30 minutes on ice. After incubation, washing, and fixation, the samples were acquired on a 10 color FACSCanto II flow cytometer. Analysis was done using FlowJo analysis software and the PE median fluorescent intensity of live SupT1 cells is plotted in FIG. 7.
In general terms: In flow cytometry, cells or beads pass a laser one at a time.

In assay [2] the target is T2, KL2B513.
T2 construct: KL2B413-derived scFv-Fc fusion protein with the variable regions in VL-VH orientation; also called KL2B413-LH-scFv; KL2B413-LH scFv-Fc fusion protein; not shown: Fc part of the scFv-Fc fusion and its junction to the scFv
Nature of the assay: SPR, Biacore; antibody captured on anti-mouse Fc, scFv-Fc fusion as analyte. As for the experimental part: Anti-Mouse Fc antibody directly immobilized on M5 sensor chip. Library Antibodies (Mouse IgG2a) diluted to 1 ug/ml to reach approximately 20-50 RU. Antigens (scFV Fc Fusions) are associated at 500 nM to 0.8 nM, 1:5 dilutions for 3 minutes. Dissociation for 30 mins.
Background: Surface plasmon resonance follows binding to a sensor surface in real time, without labels.

Assay [3] concerns the target T2, KL2B513. Nature of the assay: SPR, ProteOn XPR36; antibody captured on anti-mouse Fc, scFv-Fc fusion as analyte. The protocol:
(§1) ProteOn XPR36 system (BioRad) was used to perform binding assays. ProteOn GLC chips (BioRad, Cat#176-5011) were coated with Anti-Mouse Fc antibody. Library Antibodies (Mouse IgG2a) were diluted to 0.25 ug/ml to 1 ug/ml to reach approximately 100-200RL. Antigens (scFv-Fc Fusions) were associated at 1000 nM to 0.4 nM, 1:4 dilutions for 3 minutes, followed by dissociation for 30 mins. The results of the assay (Table 1 below) show similar binding affinity of A002B39 with both KLB513 and KLB610.

For the next assay, the target named is T3, KL2B610.
T3 construct: KL2B413-derived scFv-Fc fusion protein with the variable regions in VH-VL orientation; also called KL2B413-HL-scFv; KLB610; not shown: Fc part of the scFv-Fc fusion and its junction to the scFv
Described as above. As for the experimental part: as §1

In assay [4] the target is T1, KLK2 CAR KL2B413-LH expressed on SupT1 …. Put plainly: flow cytometry on KL2B413-LH SupT1 cells, PE goat anti-mouse IgG detection, PE median fluorescence. The protocol: SupT1 cells expressing KL2B413LH were compared to parental CAR-SupT1 cells. Cells (100,000 cells/well) were stained with LIVE/DEAD Fixable Near-IR viability dye (Life Technologies L10119) and then incubated with increasing concentrations of A002B39 for 30 minutes on ice. Following incubation, the samples were washed with BSA stain buffer (BD Biosciences #554657) and stained with PE-goat anti-mouse IgG polyclonal antibody (Biolegend #405307) to detect bound antibody on live CAR+SupT1 cells. After incubation, washing, and fixation (Cytofix, BD Biosciences), the samples were acquired on a 10 color FACSCanto II (BD Biosciences) flow cytometer. Analysis was done using FlowJo and the PE median fluorescent intensity of live SupT1 cells is plotted in FIG. 4. […] No binding was detected on CAR-SupT1 parental cells.

T3 sequence (scFv, as listed by the source limits assumed): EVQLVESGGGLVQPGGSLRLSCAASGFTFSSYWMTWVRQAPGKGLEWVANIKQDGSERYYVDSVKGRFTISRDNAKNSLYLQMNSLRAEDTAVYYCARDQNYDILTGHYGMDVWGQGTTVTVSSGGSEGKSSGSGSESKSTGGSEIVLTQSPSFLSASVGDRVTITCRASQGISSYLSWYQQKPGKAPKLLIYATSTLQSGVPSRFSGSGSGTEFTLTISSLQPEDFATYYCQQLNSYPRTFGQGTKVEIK
T2 sequence (scFv, as listed by the source limits assumed): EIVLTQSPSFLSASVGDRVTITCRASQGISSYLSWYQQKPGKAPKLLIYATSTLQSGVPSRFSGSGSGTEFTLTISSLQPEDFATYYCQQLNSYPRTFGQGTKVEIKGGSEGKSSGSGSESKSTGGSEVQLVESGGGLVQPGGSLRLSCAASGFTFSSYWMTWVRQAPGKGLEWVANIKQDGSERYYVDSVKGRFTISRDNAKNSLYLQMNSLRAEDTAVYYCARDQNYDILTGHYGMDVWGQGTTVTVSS
T1 sequence (chain, as listed by the source limits assumed): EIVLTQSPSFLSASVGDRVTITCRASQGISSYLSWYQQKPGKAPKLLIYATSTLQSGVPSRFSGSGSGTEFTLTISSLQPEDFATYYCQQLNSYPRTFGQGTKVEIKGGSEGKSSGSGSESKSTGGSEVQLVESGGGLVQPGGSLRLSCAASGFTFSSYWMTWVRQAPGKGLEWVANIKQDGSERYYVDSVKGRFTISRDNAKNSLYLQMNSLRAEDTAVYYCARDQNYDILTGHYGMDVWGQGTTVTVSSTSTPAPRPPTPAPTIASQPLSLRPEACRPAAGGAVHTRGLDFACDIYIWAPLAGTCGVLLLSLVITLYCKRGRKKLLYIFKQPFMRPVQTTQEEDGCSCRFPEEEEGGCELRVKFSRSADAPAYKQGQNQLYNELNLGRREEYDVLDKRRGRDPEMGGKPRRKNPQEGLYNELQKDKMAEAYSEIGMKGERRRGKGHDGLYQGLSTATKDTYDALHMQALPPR

B1: PE-A002B39 (antibody, mouse IgG2a, kappa, V domains shown)
VH: EVQLVQSGAEVKKPGSSVKVSCKASGGTFSSYAISWVRQAPGQGLEWMGGIIPIFGTANYAQKFQGRVTITADESTSTAYMELSSLRSEDTAVYYCARVQWGLDYWGQGTLVTVSS
VL: EIVLTQSPATLSLSPGERATLSCRASQSVDSALAWYQQKPGQAPRLLIYGASNRATGIPARFSGSGSGTDFTLTISSLEPEDFAVYYCQQRFNWPITFGQGTKVEIKR
modifications: R-phycoerythrin conjugate, 1:1 PE:antibody; attachment site and chain not stated
notes: also called A002B39 conjugated to R-PE
By EC50 is commonly meant the concentration that produces a half-maximal response. Read a high EC50 as weaker potency. Regarding B1, the EC50 in assay [1] amounted to 1.6 µg/mL.

B2: A002B39 (antibody, mouse IgG2a, kappa, V domains shown)
VH: B1 VH
VL: B1 VL
notes: expressed in HEK293 Expi or CHO; also called A002M39
As a reminder, the Kd is the constant that tells how readily two partners part at equilibrium. Low readings indicate tighter binding, high ones weaker binding. In general, koff refers to the rate constant with which the complex falls apart. Read a low koff as slow dissociation. Broadly, the kon is the second-order rate constant of association. Consider B2, for which, in the assay with KL2B513 [2], the Kd turned out to be 3.49 nM, the koff is 0.000202 s⁻¹ and the kon worked out at 57900 M⁻¹ s⁻¹. In the assay with KL2B513 [3], the Kd came out at 0.99 nM, the koff is 0.000333 s⁻¹ and the kon amounted to 339000 M⁻¹ s⁻¹. For the same molecule, in the assay with KL2B610, the affinity, expressed as Kd, was 1.11 nM; the koff amounted to 0.000315 s⁻¹; the kon was determined as 285000 M⁻¹ s⁻¹. Moreover, in assay [4], the EC50 came to 0.4 µg/mL.
